± gives the uncertainty stated by the source.

The data set in a line: amyloid nucleation score (Sup35N fusion, yeast selection) (log enrichment); library NNK2; higher = more nucleation; inactive = no reads after selection. The essentials: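 Growth for 7 days at 30°C on medium lacking adenine and uracil followed a 24-hour induction with 100 μM copper sulfate of psi-negative yeast expressing peptides of 20 random codons fused to Sup35N. Input and output plasmid inserts were sequenced with Illumina, and sequences with under 100 input reads were excluded. Nucleation score is the DiMSum log enrichment of output over input reads, centred on the mode score of non-aggregating sequences.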
Substance PAIISFQYLFGRRSELEKM came in with an amyloid nucleation score of 5.572 ± 0.047.
The figure for PALTIEIMSYGASQHGFSLV is 0.367 ± 0.28; for PATDPWCS it is -0.14 ± 0.25; for PAVFRHHPGKHVRHGSSTTT it is 0.73 ± 0.28.
Then PCCQEACDGCEGNRDLPGEA, with 1.65 ± 0.32; and PCLMEGFTS, with -0.849 ± 0.64.
Then PDFFCRSVVNQKMYLKTLHY, with -1.03 ± 1.1.
Take PDVPIFCPYAAAMKVAVCYR: the amyloid nucleation score is -0.526 ± 0.76.
Then PEGPERFVFATWPRMHMPSY, with “inactive”; and PELSNDQGYFVDSVKSGKVE, with -0.036 ± 0.48; and PEPFS, with “inactive”.
The figure for PFACYGFCRM is -1.29 ± 0.76.
With PFGKGKEHIKL, the amyloid nucleation score result is “inactive”.
Then PFLSLAVFVTQAVVEHCCRC, with 7.48 ± 0.085.
Then PFSCITRLQ, with 2.48 ± 0.1; and PFSIVIVANFYIITYEACFL, with 2.85 ± 0.14.
In the case of PFSLVTSITFFWSIMCIYAM, the amyloid nucleation score was found to be 0.57 ± 0.81.
Then PGDMLSGAFHMCISNCVTSC, with 0.319 ± 0.38; and PGHWLTNINISFSACKCLMM, with 8.227 ± 0.045; and PGLPEERHNCKTYCHRTSRP, with 0.016 ± 0.34.
Then PGVMHICLCRTHTSRCKCTL, with 0.402 ± 0.57; and PGVRISVPVLLAWNCYC, with 8.558 ± 0.071; and PHLTMFKARYIDTFAPRS, with -0.672 ± 0.5.
Then PIFSSKLSGRGR, with -0.059 ± 0.55; and PIGHLFQET, with 0.92 ± 0.24.
As for PILLMSTVTRRLVRCNVAFK, the amyloid nucleation score came to 0.391 ± 0.51.
For the substance PIRVSSSVVSWYYFGNSRIW, the amyloid nucleation score is -1.09 ± 0.62.
The figure for PITLTRASALLCKYYAFWTF is 1.14 ± 0.37; for PIWWLL it is -0.822 ± 0.79; for PKRLKSSYLD it is -0.208 ± 0.37.
Consider PKVLGFFK, for which the amyloid nucleation score result was “inactive”.
On to PKYTDCCFFNLILIGWSVFP, for which the amyloid nucleation score came to 5.272 ± 0.052.
The substance PLCLSDNYMTIQSSSILNAH came in with an amyloid nucleation score of -0.205 ± 0.41.
The figure for PLLFIMANFCLVVLHVSFYN is -0.639 ± 1.
The figure for PLPGFRIMFLWRQNALPVQP is 0.196 ± 0.64; for PMCYSVSSNLWVTTLQWGYL it is 2.56 ± 0.14.
Turning to PMVFNHG, the amyloid nucleation score was -0.398 ± 1.
Then PNACPFWCLGRV, with -0.439 ± 0.63; and PNIIGKLGNLNSLVLC, with 0.382 ± 0.8.
Then PNSPRMNESLSFIFPGDVSG, with -0.474 ± 1; and PNSYAETDWISLCSDSMSWH, with 0.721 ± 0.74; and PNTSKGGDGYSTWGTSQASS, with 0.03 ± 0.46.
Then PPHCTGHLV, with 0.183 ± 1; and PPIRVYNLSSTYPMDMSSQR, with -0.8 ± 0.27.
PQSWCFFPNFDKGLVLVRRQ showed an amyloid nucleation score of 0.801 ± 0.82.
Then PQTLCINISFDYRYMNQVLD, with 7.449 ± 0.074; and PRCNGHY, with “inactive”; and PRCRVAR, with 0.305 ± 1.
The entry for PRCYLVLKFYSQCLFSVHTF is “inactive”; for PRFIQGYILRNLCARMLKYS it is -0.368 ± 0.39; for PRQHYSNRGFCFSFILGVGM it is -0.327 ± 0.34.
Then PRSVFCCLDGRHTPRKMPIY, with -0.47 ± 0.74; and PRVNILWYNRMLYAWFRPVV, with -1.21 ± 0.55; and PSDSLVYVYDL, with -0.41 ± 0.38.
As to PSIRWNVIIAMSYLQS, the amyloid nucleation score amounted to 1.89 ± 0.16.
The entry for PSMQVVKRVINFG is “inactive”.
The figure for PSQAGKIMVLKNTRWNHRDC is 1.01 ± 0.52.

For the origin of these results see the supplement of paper PMC12042874.
